“And” between values parts separate entries of the source, which are not always exact repeats. Equal entries are not always repeated. Positions of bridges follow the written chain, without caps; N, C: chain ends. No end group written: not given here.
B1: 12-mer linear peptide LP3 (X12GGGS form of SGVYKVAYDWQH) (peptide)
peptide: SGVYKVAYDWQHGGGS
notes: peptide of phage clone LC3; C-terminal linker; source: E. coli SHuffle T5, purified; N-terminal tag cleaved with enterokinase and removed on nickel beads; not shown: His6, N-terminal, cleaved; 28 aa tag, N-terminal, cleaved
B2: 7-mer cyclic peptide CP6 (ACX7CGGGS form of CMQTQRAHC) (peptide)
peptide: ACMQTQRAHCGGGS
modifications: disulfide 2-10 (inferred)
notes: additional alanine at the N-terminus (ACX7CGGGS); peptide of phage clone CC6; C-terminal linker; source: E. coli SHuffle T5, purified; N-terminal tag cleaved with enterokinase and removed on nickel beads; not shown: His6, N-terminal, cleaved; 28 aa tag, N-terminal, cleaved
B3: 7-mer cyclic peptide CP2 (ACX7CGGGS form of CTKTDVHFC) (peptide)
peptide: ACTKTDVHFCGGGS
modifications: disulfide 2-10 (inferred)
notes: additional alanine at the N-terminus (ACX7CGGGS); peptide of phage clone CC2; C-terminal linker; source: E. coli SHuffle T5, purified; N-terminal tag cleaved with enterokinase and removed on nickel beads; not shown: His6, N-terminal, cleaved; 28 aa tag, N-terminal, cleaved
B4: 7-mer cyclic peptide CP16 (ACX7CGGGS form of CLAQSHPLC) (peptide)
peptide: ACLAQSHPLCGGGS
modifications: disulfide 2-10 (inferred)
notes: additional alanine at the N-terminus (ACX7CGGGS); peptide of phage clone CC16; C-terminal linker; also called C16; source: E. coli SHuffle T5, purified; N-terminal tag cleaved with enterokinase and removed on nickel beads; not shown: His6, N-terminal, cleaved; 28 aa tag, N-terminal, cleaved
B5: 7-mer cyclic peptide CP12 (ACX7CGGGS form of CTYENHRTC) (peptide)
peptide: ACTYENHRTCGGGS
modifications: disulfide 2-10 (inferred)
notes: additional alanine at the N-terminus (ACX7CGGGS); peptide of phage clone CC12; C-terminal linker; source: E. coli SHuffle T5, purified; N-terminal tag cleaved with enterokinase and removed on nickel beads; not shown: His6, N-terminal, cleaved; 28 aa tag, N-terminal, cleaved
B6: 7-mer cyclic peptide CP4 (ACX7CGGGS form of CIHSSTRAC) (peptide)
peptide: ACIHSSTRACGGGS
modifications: disulfide 2-10 (inferred)
notes: additional alanine at the N-terminus (ACX7CGGGS); peptide of phage clone CC4; C-terminal linker; source: E. coli SHuffle T5, purified; N-terminal tag cleaved with enterokinase and removed on nickel beads; not shown: His6, N-terminal, cleaved; 28 aa tag, N-terminal, cleaved
B7: 7-mer cyclic peptide CP15 (ACX7CGGGS form of CDPRHSKFC) (peptide)
peptide: ACDPRHSKFCGGGS
modifications: disulfide 2-10 (inferred)
notes: additional alanine at the N-terminus (ACX7CGGGS); peptide of phage clone CC15; C-terminal linker; source: E. coli SHuffle T5, purified; N-terminal tag cleaved with enterokinase and removed on nickel beads; not shown: His6, N-terminal, cleaved; 28 aa tag, N-terminal, cleaved

Key:
[1] = molecular target: T1, interaction between rDIII and ~ 15 kDa receptor of hBMECs (West Nile virus, UniProt P06935); assay: Blocking of interaction between rDIII and proteins of hBMECs by peptides (Western blot); format: binding, West Nile virus / human; conditions: 2.5 µg (0.19 nM) rDIII pre-incubated with tenfold molar excess (1.9 nM) of peptide
T1 construct: rDIII – recombinant domain III; made in house; host or cells: E. coli M15
T1 sequence (P06935 584-692 limits assumed): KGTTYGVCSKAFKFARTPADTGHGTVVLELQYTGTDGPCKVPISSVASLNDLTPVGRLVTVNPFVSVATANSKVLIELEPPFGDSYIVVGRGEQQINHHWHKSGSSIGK
Experimental: (§1) First, concentration-dependent ELISA and Western blot were performed to get the minimum concentration of rDIII required to show its interaction with hBMECs proteins. Details are presented in Supplementary Method S12 and Supplementary Method S13. Subsequently, the ability of 7-mer and 12-mer peptides to block the interaction between rDIII and proteins of hBMECs was tested. A tenfold molar excess of peptides was incubated with rDIII for 1 h at room temperature. Such pre-incubated rDIII was subsequently used in the assays. Details of both methods are described in Supplementary Method S12 and Supplementary Method S13. […]
Blocking of interaction between rDIII and proteins of hBMECs by peptides (Western blot).
Two hundred micrograms of proteins extracted from hBMECs were separated on 2-well PAGE […]
gel (12% polyacrylamide gel) and transferred on 0.45 μm nitrocellulose membrane (Amersham Protran; GE Healthcare) for 1 h at 30 V. Details of LDS-PAGE are described in Supplementary Methods S7. The membrane was cut horizontally to obtain proteins of molecular weight between ~10 kDa to ~25 kDa. Subsequently, this membrane was sliced vertically to obtain 0.3 cm strips, which were then used in Western blot (Supplementary Fig.
The NC strips with transblotted hBMECs proteins were first incubated with rDIII at various concentrations to find out the minimal concentration of rDIII required to detect the interaction with hBMECs proteins. Non-specific binding sites were blocked with 1% BSA in 0.05% TBST (pH 7.2) for 1 h at room temperature and constant shaking followed by a washing step for 5 min with 0.05% TBST. The NC strips were incubated with rDIII at different concentrations (5 µg, 2.5 µg, 2 µg, 1 µg, 500 ng) diluted in 1 mL of 0.05% TBST for 3 h at room temperature and constant shaking. After 3 washings with 0.05% TBST, strips were incubated with HisProbe-HRP conjugate (1:5,000 dilution in 0.1% BSA in 0.05% TBST; Thermo Fisher Scientific) for 30 min at room temperature. Six washings, each of 5 min were performed before incubating the strips in SuperSignal chemiluminescence substrate (Thermo Fisher Scientific). The signal was captured on the C-DiGit Blot Scanner (Odyssey CLx, LI-COR Biosciences). For negative control, rDIII was excluded from the above-mentioned protocol.
To block the interaction, the NC strips were blocked as described above.
Simultaneously, 2.5 µg (0.19 nM) of rDIII were pre-incubated with 2.75 µg of each peptide (10-fold molar excess; 1.9 nM) in TBS for 1 h at room temperature. Further on, strips were incubated with pre-incubated rDIII for 3 h at room temperature with constant shaking. After 3 washings with 0.05% TBST, strips were incubated with HisProbe-HRP conjugate as described above. […]

rDIII = molecular target: T2, rDIII (West Nile virus, UniProt P06935); assay: ELISA of the binding of 7-mer cyclic and 12-mer linear peptides to rDIII; conditions: peptides coated through C-terminus in CovaLink NH plates; 1 µg rDIII; HisProbe-HRP; negative control subtracted
T2 construct: rDIII – recombinant domain III; made in house; host or cells: E. coli M15
T2 sequence (P06935 584-692 limits assumed): T1 sequence (P06935 584-692 limits assumed)
Experimental: The 7-mer cyclic and 12-mer linear peptides were covalently bound in CovaLink NH microwell plates and their binding to rDIII was corroborated by ELISA. Details are presented in Supplementary Method S11.
Confirmation of the binding of 7-mer cyclic and 12-mer linear peptides to rDIII by ELISA. The 7-mer cyclic and 12-mer linear peptides were covalently bound in CovaLink NH microwell plates overnight at 4°C as per the manufacturer´s instructions (Thermo Fischer Scientific).
Unbound peptides were washed with PBS (pH 7.4) and non-specific sites were blocked with 0.5% BSA in PBS for 1 h at room temperature. After blocking, wells were washed 2 times for 2 min with CovaBuffer (2 M NaCl, 40 mM MgSO4.7H2O, 0.05% Tween 20, PBS; pH 7.2). One microgram of rDIII diluted in 0.05% PBST was added in separate wells and incubated for 1 h at room temperature with constant shaking. Wells were washed 3 times for 2 min with CovaBuffer and interaction was detected with HisProbe-HRP conjugate (1:5,000 dilution in 0.1% BSA in PBST; Thermo Fisher Scientific) for 30 min at room temperature with constant shaking. After 6 washings, the chromogenic reaction was developed using a 1-Step Ultra TMB-ELISA substrate (Thermo Fisher Scientific). After 25 min, the reaction was stopped with 2 M H2SO4 and absorbance was measured at 450 nm. For negative controls, either rDIII or peptides were excluded from the protocol. The assay was performed in triplicates. […]

[2] = molecular target: T3, interaction between rDIII and proteins of hBMECs (West Nile virus, UniProt P06935); assay: Blocking of interaction between rDIII and proteins of hBMECs by peptides (ELISA); format: binding, West Nile virus / human; conditions: rDIII 0.15 nM pre-incubated with tenfold molar excess (1.5 nM) of peptide; ELISA
T3 construct: rDIII – recombinant domain III; made in house; host or cells: E. coli M15
T3 sequence (P06935 584-692 limits assumed): T1 sequence (P06935 584-692 limits assumed)
Experimental: as §1
Blocking of interaction between rDIII and proteins of hBMECs by peptides (ELISA). First, different concentrations of rDIII were tested to get the minimum concentration of rDIII required to show the interaction with hBMECs proteins. Protein extract of hBMECs (4 μg/well) diluted in coating buffer (0.5 M Na2CO3, 0.5 M NaHCO3; pH 9.5) was incubated in the microtiter wells for overnight at 4°C. Unbound hBMECs proteins were washed with PBS (pH 7.3) containing 0.05% Tween 20 (0.05% PBST) and non-specific binding sites were blocked with 0.5% BSA in 0.05% PBST. rDIII at different concentrations (5 µg, 2.5 µg, 2 µg, 1 µg, 500 […]
ng, 250 ng, 125 ng, and 62.5 ng) diluted in 0.05% PBST was added into wells and incubated for 3 h at room temperature and constant shaking. Wells were washed 3 times with 0.05% PBST and incubated with HisProbe-HRP conjugate (1:5,000 dilution in 0.1% BSA in 0.05% PBST; Thermo Fisher Scientific) for 30 min at room temperature and constant shaking. […] The reaction was stopped after 25 min with 2 M H2SO4 and the absorbance was measured at 450 nm. […]
After blocking, the wells were washed 3 times with 0.05% PBST, pre-incubated rDIII was added and incubated for 3 h at room temperature with constant shaking. […] The reaction was stopped after 25 min with 2 M H2SO4 and the absorbance was measured at 450 nm. hBMECs proteins incubated with untreated rDIII were used as a positive control. […]

[3] = molecular target: T4, recombinant domain III (DIII) of the envelope (E) glycoprotein of West Nile virus (West Nile virus); assay: ELISA; blocking ELISA: rDIII (2 µg, printed as 0.15 nM) pre-incubated 1 h at room temperature with a tenfold molar excess (1.5 nM) of peptide, then added to coated hBMEC proteins; negative control (no rDIII) subtracted; conditions: both partners purified
T4 chain: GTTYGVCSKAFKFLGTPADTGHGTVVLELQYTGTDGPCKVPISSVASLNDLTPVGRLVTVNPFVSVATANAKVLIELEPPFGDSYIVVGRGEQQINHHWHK

[4] = molecular target: T4, recombinant domain III (DIII) of the …; assay: cell-based or functional assay

Molecule	inhibition of the interaction between rDIII and ~ 15 kDa hBMECs receptor (Western blot) [1]	A450, ELISA of peptide binding to rDIII (rDIII)	inhibition of the interaction between rDIII and hBMECs proteins [2] [%]	A450 of rDIII on proteins of hBMECs after pre-incubation with the peptide [3]	percent inhibition of rDIII binding to proteins of hBMECs [3] [%]	neutralisation of infection of cultured cells by virus like particles (C, M and E proteins, luciferase reporter), EC50; the peptide blocks DIII binding to endothelial cells [4] [nM]
CDPRHSKFC (ACDPRHSKFCGGGS; disulfide 2-10 (inferred)) [CP15]	did not show clear inhibition of the interaction	> 1.5				
CMQTQRAHC (ACMQTQRAHCGGGS; disulfide 2-10 (inferred)) [CP6]	did not show clear inhibition of the interaction	> 1.5				
CTNANHYFC (ACTNANHYFCGGGS; disulfide 2-10 (inferred)) [CP7]		> 1.5	37			
HYSWSWIAYSPG (HYSWSWIAYSPGGGGS; left off: His6, N-terminal, cleaved | 28 aa tag, N-terminal, cleaved) [LP19]		0.082				
SGVYKVAYDWQH (SGVYKVAYDWQHGGGS; left off: His6, N-terminal, cleaved | 28 aa tag, N-terminal, cleaved) [LP3]	did not show clear inhibition of the interaction	2.564 and > 1.5				
B1				0.647	39	
B2				0.56	47	
B3				0.117	89	2.43
B4				0.427	60	14.8
B5				0.418	61	10.4
B6				0.346	67	17
B7				0.423	60	
